In the supplement of paper PMC9112550, “Optimization of the antimicrobial peptide Bac7 by deep mutational scanning” (BMC Biology, 2022):

Tested on: Escherichia coli TOP10
Assay: shrunken log2 fold change of peptide-encoding DNA abundance (4.5 h post-induction vs induction); higher = less antimicrobial activity (less host growth inhibition)
Settings: time post-induction: 4.5 h; library: site-saturation at positions 5, 18, 19, 20
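Also: peptides expressed intracellularly from a pBAD plasmid library in pooled LB shake-flask culture, induced with 0.3% L-arabinose, DNA abundance read by NGS, three biological replicates, DESeq2 with apeglm shrinkage.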

**Q.** RRIRCRPPRLPRPRPRPFIMPRP was tested. Which “shrunken log2 fold change” value did it give?
**A.** -0.765

**Q.** RRIRQRPPRLPRPRPRPWWAPRP was tested. Which “shrunken log2 fold change” value did it give?
**A.** -0.014

**Q.** With RRIRVRPPRLPRPRPRPFYDPRP as the sequence, how does the “shrunken log2 fold change” value read?
**A.** -0.0104

**Q.** Which “shrunken log2 fold change” value does the source give for RRIRERPPRLPRPRPRPYKMPRP here?
**A.** -0.0803

**Q.** Which “shrunken log2 fold change” value does the source give for RRIRQRPPRLPRPRPRPALPPRP here?
**A.** 0.397

**Q.** Which “shrunken log2 fold change” value does the source give for RRIRYRPPRLPRPRPRPCSIPRP here?
**A.** -0.0204

**Q.** Which “shrunken log2 fold change” value does the source give for RRIRGRPPRLPRPRPRPWQTPRP here?
**A.** 0.174

**Q.** How did the “shrunken log2 fold change” value turn out when RRIRCRPPRLPRPRPRPVEPPRP was run?
**A.** -0.0281

**Q.** Which “shrunken log2 fold change” value does the source give for RRIRLRPPRLPRPRPRPKERPRP here?
**A.** -0.00664

**Q.** How did the “shrunken log2 fold change” value turn out when RRIRKRPPRLPRPRPRPWHLPRP was run?
**A.** -0.596

**Q.** For RRIRVRPPRLPRPRPRPAYEPRP, which “shrunken log2 fold change” value is on record?
**A.** 0.0112

**Q.** With RRIRMRPPRLPRPRPRPEWSPRP as the sequence, how does the “shrunken log2 fold change” value read?
**A.** 0.721

**Q.** With RRIRIRPPRLPRPRPRPSEDPRP as the sequence, how does the “shrunken log2 fold change” value read?
**A.** -0.212

**Q.** With RRIRVRPPRLPRPRPRPMISPRP as the sequence, how does the “shrunken log2 fold change” value read?
**A.** -0.237

**Q.** Which “shrunken log2 fold change” value does the source give for RRIRDRPPRLPRPRPRPAEAPRP here?
**A.** 0.314

**Q.** How did the “shrunken log2 fold change” value turn out when RRIRKRPPRLPRPRPRPWMMPRP was run?
**A.** 0.211

**Q.** For RRIRWRPPRLPRPRPRPGHGPRP, which “shrunken log2 fold change” value is on record?
**A.** 0.214

**Q.** With RRIRCRPPRLPRPRPRPGKQPRP as the sequence, how does the “shrunken log2 fold change” value read?
**A.** -0.106

**Q.** How did the “shrunken log2 fold change” value turn out when RRIRERPPRLPRPRPRPQDIPRP was run?
**A.** -0.135

**Q.** With RRIRCRPPRLPRPRPRPHIYPRP as the sequence, how does the “shrunken log2 fold change” value read?
**A.** -0.954

**Q.** For RRIRGRPPRLPRPRPRPDFGPRP, which “shrunken log2 fold change” value is on record?
**A.** 0.0741

**Q.** For RRIRTRPPRLPRPRPRPSGTPRP, which “shrunken log2 fold change” value is on record?
**A.** -0.0272

**Q.** With RRIRSRPPRLPRPRPRPEESPRP as the sequence, how does the “shrunken log2 fold change” value read?
**A.** -0.048

**Q.** How did the “shrunken log2 fold change” value turn out when RRIRPRPPRLPRPRPRPPFIPRP was run?
**A.** -0.0606

**Q.** For RRIRWRPPRLPRPRPRPWSLPRP, which “shrunken log2 fold change” value is on record?
**A.** 0.0526

**Q.** For RRIRPRPPRLPRPRPRPIYAPRP, which “shrunken log2 fold change” value is on record?
**A.** -0.0839

**Q.** For RRIRVRPPRLPRPRPRPWWNPRP, which “shrunken log2 fold change” value is on record?
**A.** -0.0063

**Q.** With RRIRQRPPRLPRPRPRPEKRPRP as the sequence, how does the “shrunken log2 fold change” value read?
**A.** 0.00771

**Q.** How did the “shrunken log2 fold change” value turn out when RRIRHRPPRLPRPRPRPRFEPRP was run?
**A.** 0.185

**Q.** How did the “shrunken log2 fold change” value turn out when RRIRERPPRLPRPRPRPVWPPRP was run?
**A.** 0.0958

**Q.** Which “shrunken log2 fold change” value does the source give for RRIRMRPPRLPRPRPRPILRPRP here?
**A.** 0.00958

**Q.** With RRIRERPPRLPRPRPRPCSVPRP as the sequence, how does the “shrunken log2 fold change” value read?
**A.** -0.0625

**Q.** How did the “shrunken log2 fold change” value turn out when RRIRFRPPRLPRPRPRPRCDPRP was run?
**A.** 0.0576

**Q.** With RRIRWRPPRLPRPRPRPEYGPRP as the sequence, how does the “shrunken log2 fold change” value read?
**A.** 0.222

**Q.** With RRIRNRPPRLPRPRPRPSAYPRP as the sequence, how does the “shrunken log2 fold change” value read?
**A.** -0.42

**Q.** For RRIRDRPPRLPRPRPRPCATPRP, which “shrunken log2 fold change” value is on record?
**A.** 0.00509

**Q.** How did the “shrunken log2 fold change” value turn out when RRIRLRPPRLPRPRPRPDQIPRP was run?
**A.** 0.018

**Q.** Which “shrunken log2 fold change” value does the source give for RRIRSRPPRLPRPRPRPANCPRP here?
**A.** -0.411

**Q.** With RRIRHRPPRLPRPRPRPTPKPRP as the sequence, how does the “shrunken log2 fold change” value read?
**A.** -0.0377

**Q.** RRIRTRPPRLPRPRPRPAPTPRP was tested. Which “shrunken log2 fold change” value did it give?
**A.** 0.0808

**Q.** RRIRERPPRLPRPRPRPCHTPRP was tested. Which “shrunken log2 fold change” value did it give?
**A.** -0.0292

**Q.** For RRIRVRPPRLPRPRPRPHCCPRP, which “shrunken log2 fold change” value is on record?
**A.** -0.147

**Q.** RRIRMRPPRLPRPRPRPWPLPRP was tested. Which “shrunken log2 fold change” value did it give?
**A.** 0.0935

**Q.** RRIRERPPRLPRPRPRPPVTPRP was tested. Which “shrunken log2 fold change” value did it give?
**A.** -0.152

**Q.** RRIRKRPPRLPRPRPRPDFQPRP was tested. Which “shrunken log2 fold change” value did it give?
**A.** 0.33

**Q.** With RRIRPRPPRLPRPRPRPCQIPRP as the sequence, how does the “shrunken log2 fold change” value read?
**A.** -0.0156

**Q.** RRIRERPPRLPRPRPRPYNAPRP was tested. Which “shrunken log2 fold change” value did it give?
**A.** -1.26

**Q.** Which “shrunken log2 fold change” value does the source give for RRIRMRPPRLPRPRPRPPKKPRP here?
**A.** 1.01

**Q.** With RRIRNRPPRLPRPRPRPNLIPRP as the sequence, how does the “shrunken log2 fold change” value read?
**A.** -0.369

**Q.** Which “shrunken log2 fold change” value does the source give for RRIRHRPPRLPRPRPRPLLCPRP here?
**A.** -0.223

**Q.** With RRIRHRPPRLPRPRPRPFSDPRP as the sequence, how does the “shrunken log2 fold change” value read?
**A.** -0.149

**Q.** How did the “shrunken log2 fold change” value turn out when RRIRMRPPRLPRPRPRPMNFPRP was run?
**A.** 0.032

**Q.** Which “shrunken log2 fold change” value does the source give for RRIRGRPPRLPRPRPRPTAEPRP here?
**A.** 3.04

**Q.** RRIRERPPRLPRPRPRPGDYPRP was tested. Which “shrunken log2 fold change” value did it give?
**A.** -0.0324

**Q.** RRIRWRPPRLPRPRPRPFNIPRP was tested. Which “shrunken log2 fold change” value did it give?
**A.** -0.715

**Q.** Which “shrunken log2 fold change” value does the source give for RRIRCRPPRLPRPRPRPHSRPRP here?
**A.** 0.0572

**Q.** For RRIRDRPPRLPRPRPRPTIWPRP, which “shrunken log2 fold change” value is on record?
**A.** -0.0201

**Q.** With RRIRFRPPRLPRPRPRPWQMPRP as the sequence, how does the “shrunken log2 fold change” value read?
**A.** 0.053

**Q.** Which “shrunken log2 fold change” value does the source give for RRIRTRPPRLPRPRPRPCWGPRP here?
**A.** -0.234

**Q.** For RRIRCRPPRLPRPRPRPPGAPRP, which “shrunken log2 fold change” value is on record?
**A.** 0.678

**Q.** RRIRDRPPRLPRPRPRPEYNPRP was tested. Which “shrunken log2 fold change” value did it give?
**A.** -0.116

**Q.** RRIRGRPPRLPRPRPRPTGNPRP was tested. Which “shrunken log2 fold change” value did it give?
**A.** 0.452

**Q.** For RRIRFRPPRLPRPRPRPTCPPRP, which “shrunken log2 fold change” value is on record?
**A.** 0.174

**Q.** RRIRARPPRLPRPRPRPHWPPRP was tested. Which “shrunken log2 fold change” value did it give?
**A.** 0.233

**Q.** RRIRERPPRLPRPRPRPTTPPRP was tested. Which “shrunken log2 fold change” value did it give?
**A.** -0.0926

**Q.** RRIRPRPPRLPRPRPRPMPRPRP was tested. Which “shrunken log2 fold change” value did it give?
**A.** 0.238

**Q.** How did the “shrunken log2 fold change” value turn out when RRIRCRPPRLPRPRPRPVKGPRP was run?
**A.** -0.261

**Q.** RRIRVRPPRLPRPRPRPYWGPRP was tested. Which “shrunken log2 fold change” value did it give?
**A.** -0.526

**Q.** How did the “shrunken log2 fold change” value turn out when RRIRQRPPRLPRPRPRPAVVPRP was run?
**A.** 0.242

**Q.** For RRIRMRPPRLPRPRPRPHWAPRP, which “shrunken log2 fold change” value is on record?
**A.** 0.00824

**Q.** With RRIRRRPPRLPRPRPRPRIQPRP as the sequence, how does the “shrunken log2 fold change” value read?
**A.** 0.241

**Q.** How did the “shrunken log2 fold change” value turn out when RRIRTRPPRLPRPRPRPYWIPRP was run?
**A.** -0.0377

**Q.** RRIRFRPPRLPRPRPRPTFVPRP was tested. Which “shrunken log2 fold change” value did it give?
**A.** -0.051

**Q.** For RRIRVRPPRLPRPRPRPWYPPRP, which “shrunken log2 fold change” value is on record?
**A.** -0.884

**Q.** Which “shrunken log2 fold change” value does the source give for RRIRQRPPRLPRPRPRPLQHPRP here?
**A.** 0.164
